This is an account of results in paper PMC7352350, “Molecular Interactions Stabilizing the Promatrix Metalloprotease-9·Serglycin Heteromer” (International Journal of Molecular Sciences, 2020).

Common to all, as to settings: both partners purified
Assay [1] deals with T1, proMMP-9 purified from THP-1 cells (human (endogenous in THP-1), UniProt P14780 20-707).
T1 construct: matrix metalloprotease-9 proenzyme, human; pre domain cleaved off, the mature proenzyme is 20-707; the preparation holds a small amount of TIMP-1; monomer and reduction-sensitive homomultimer; also called pMMP-9; promatrix metalloprotease-9; source: purified from conditioned medium of PMA-stimulated THP-1 cells (Q-Sepharose pass-through, gelatin-Sepharose)
Kind of assay: peptide or protein array; 20-mer walk of the SG core protein on cellulose, two-residue shift; 8.8 ul of 11.2 ug/mL proMMP-9 in 10 mL blocking buffer, 1-4 h, room temperature; antibody against MMP-9.

Assay [2] concerns the target T2, recombinant full-length proMMP-9 (human, UniProt P14780 20-707).
T2 construct: matrix metalloprotease-9 proenzyme, human, full-length; pre domain cleaved off, the mature proenzyme is 20-707; also called rpMMP-9; source: Sf9, baculovirus, purified (gelatin-Sepharose)
The description is as above.

Assay [3] deals with T3, recombinant proMMP-9 lacking the HPX domain (human, UniProt P14780 20-515).
T3 construct: MMP-9 proenzyme, human; stop codon behind the codon for A515; the mature proenzyme starts at 20; also called rpMMP-9ΔHPX; proMMP-9ΔHPX; source: Sf9, baculovirus, purified (gelatin-Sepharose)
The description is as above.

The target in assay [4] is T4, recombinant human His-tagged serglycin (human, UniProt P10124 28-158).
T4 construct: serglycin core protein, human, the tag stands instead of the signal peptide; no GAG chains; numbers count on: the mature protein (1-131); also called Ht-SG; SG core protein; source: bought: ProSpec (produced in Escherichia coli)
T4 sequence (looked up): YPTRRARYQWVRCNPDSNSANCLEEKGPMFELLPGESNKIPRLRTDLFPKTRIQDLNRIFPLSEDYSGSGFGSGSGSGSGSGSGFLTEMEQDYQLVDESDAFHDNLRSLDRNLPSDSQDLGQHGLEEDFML
Kind of assay: peptide or protein array; 20-mer walks of the MMP-9 FnII module and HPX domain on cellulose, two-residue shift; 10 uL of 1 ng/uL Ht-SG in 10 mL blocking buffer, 1-4 h, room temperature; antibodies against SG.

The target of assay [5] is T1, proMMP-9 purified from THP-1 cells. In words: peptide or protein array; 20-mer walk of the SG core protein on cellulose, two-residue shift; 8.8 ul of 11.2 ug/mL proMMP-9 in 10 mL blocking buffer, 1-4 h, room temperature; antibody against MMP-9. This is another data set of the same source.

T1 sequence (P14780 20-707): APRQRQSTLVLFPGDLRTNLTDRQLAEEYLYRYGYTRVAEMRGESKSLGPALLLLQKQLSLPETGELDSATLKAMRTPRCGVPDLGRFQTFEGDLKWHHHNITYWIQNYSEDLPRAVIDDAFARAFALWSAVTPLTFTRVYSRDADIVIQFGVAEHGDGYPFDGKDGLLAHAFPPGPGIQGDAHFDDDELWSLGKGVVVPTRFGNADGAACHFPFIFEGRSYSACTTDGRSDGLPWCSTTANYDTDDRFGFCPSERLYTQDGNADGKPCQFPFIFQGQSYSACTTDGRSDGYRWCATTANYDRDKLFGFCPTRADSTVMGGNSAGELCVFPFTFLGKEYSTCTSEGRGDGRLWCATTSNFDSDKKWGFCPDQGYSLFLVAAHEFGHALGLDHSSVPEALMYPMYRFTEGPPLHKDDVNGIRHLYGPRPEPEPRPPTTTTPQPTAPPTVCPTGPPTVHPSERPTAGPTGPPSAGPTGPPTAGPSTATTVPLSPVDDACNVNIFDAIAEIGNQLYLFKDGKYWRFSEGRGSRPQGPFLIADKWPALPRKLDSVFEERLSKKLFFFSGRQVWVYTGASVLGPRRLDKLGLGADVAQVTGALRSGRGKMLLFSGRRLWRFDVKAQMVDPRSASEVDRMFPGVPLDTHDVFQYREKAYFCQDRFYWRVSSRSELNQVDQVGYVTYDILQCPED
T3 sequence (P14780 20-515): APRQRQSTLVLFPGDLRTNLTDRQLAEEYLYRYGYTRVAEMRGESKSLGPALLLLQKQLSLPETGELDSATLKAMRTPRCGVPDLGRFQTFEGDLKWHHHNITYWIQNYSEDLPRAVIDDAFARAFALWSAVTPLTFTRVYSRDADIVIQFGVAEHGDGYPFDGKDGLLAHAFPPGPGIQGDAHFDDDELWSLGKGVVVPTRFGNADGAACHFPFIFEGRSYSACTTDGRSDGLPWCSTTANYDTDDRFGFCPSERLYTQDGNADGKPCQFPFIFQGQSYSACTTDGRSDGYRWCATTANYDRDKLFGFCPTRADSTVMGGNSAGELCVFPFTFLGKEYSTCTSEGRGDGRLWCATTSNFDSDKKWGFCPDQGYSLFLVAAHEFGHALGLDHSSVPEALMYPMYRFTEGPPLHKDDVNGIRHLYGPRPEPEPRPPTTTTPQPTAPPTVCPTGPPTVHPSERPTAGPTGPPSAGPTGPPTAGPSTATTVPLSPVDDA

B1: SG peptide 26 (peptide, UniProt P10124 78-97, looked up)
peptide: TRIQDLNRIFPLSEDYSGSG
notes: serglycin core protein, spot 26 of the 20-mer walk with two-residue shift; numbers count on: the mature protein (1-131); source: synthetic peptide on a cellulose membrane
As to B1, the binding result in assay [1], in assay [2] and in assay [3] was “binds” in each case.

B2: SG peptide 25 (peptide, UniProt P10124 76-95, looked up)
peptide: PKTRIQDLNRIFPLSEDYSG
notes: serglycin core protein, spot 25 of the 20-mer walk with two-residue shift; numbers count on: the mature protein (1-131); source: synthetic peptide on a cellulose membrane
For B2, the binding result in assay [1], in assay [2] and in assay [3] was “binds” throughout.

B3: HPX peptide 85 (peptide, UniProt P14780 688-707, looked up)
peptide: LNQVDQVGYVTYDILQCPED
notes: MMP-9 HPX domain (F521-D707), last spot (85) of the 20-mer walk; source: synthetic peptide on a cellulose membrane
With B3, in assay [4], the binding result was “binds”.

B4: SG peptide 52 (peptide, UniProt P10124 130-149, looked up)
peptide: HDNLRSLDRNLPSDSQDLGQ
notes: serglycin core protein, spot 52 of the 20-mer walk with two-residue shift; numbers count on: the mature protein (1-131); source: synthetic peptide on a cellulose membrane
Consider B4, for which, in assay [5], the binding result is given as “binds”.

B5: HPX peptide 37 (peptide, UniProt P14780 593-612, looked up)
peptide: ASVLGPRRLDKLGLGADVAQ
notes: MMP-9 HPX domain (F521-D707), spot 37 of the 20-mer walk with two-residue shift; source: synthetic peptide on a cellulose membrane
Regarding B5, the binding result in assay [4] is on record as “binds”.

B6: FnII peptide 35 (peptide, UniProt P14780 293-312, looked up)
peptide: IFQGQSYSACTTDGRSDGYR
notes: MMP-9 FnII module (A225-D390), spot 35 of the 20-mer walk with two-residue shift; source: synthetic peptide on a cellulose membrane
B6: the binding result in assay [4] is “binds”.

B7: SG peptide 48 (peptide, UniProt P10124 122-141, looked up)
peptide: LVDESDAFHDNLRSLDRNLP
notes: serglycin core protein, spot 48 of the 20-mer walk with two-residue shift; numbers count on: the mature protein (1-131); source: synthetic peptide on a cellulose membrane
Turning to B7, the binding result in assay [1], in assay [2] and in assay [3] was “binds” each time.

B8: SG peptide 21 (peptide, UniProt P10124 68-87, looked up)
peptide: PRLRTDLFPKTRIQDLNRIF
notes: serglycin core protein, spot 21 of the 20-mer walk with two-residue shift; numbers count on: the mature protein (1-131); source: synthetic peptide on a cellulose membrane
Turning to B8, the binding result in assay [1] and in assay [2] was “binds” each time.

B9: HPX peptide 71 (peptide, UniProt P14780 661-680, looked up)
peptide: THDVFQYREKAYFCQDRFYW
notes: MMP-9 HPX domain (F521-D707), spot 71 of the 20-mer walk with two-residue shift; source: synthetic peptide on a cellulose membrane
B9: the binding result in assay [4] is “binds”.

B10: FnII peptide 13 (peptide, UniProt P14780 249-268, looked up)
peptide: RSDGLPWCSTTANYDTDDRF
notes: MMP-9 FnII module (A225-D390), spot 13 of the 20-mer walk with two-residue shift; source: synthetic peptide on a cellulose membrane
For the molecule B10, in assay [4], the binding result is recorded as “binds”.

B11: FnII peptide 65 (peptide, UniProt P14780 353-372, looked up)
peptide: FLGKEYSTCTSEGRGDGRLW
notes: MMP-9 FnII module (A225-D390), spot 65 of the 20-mer walk with two-residue shift; source: synthetic peptide on a cellulose membrane
Consider B11, for which the binding result in assay [4] is on record as “binds”.

B12: HPX peptide 41 (peptide, UniProt P14780 601-620, looked up)
peptide: LDKLGLGADVAQVTGALRSG
notes: MMP-9 HPX domain (F521-D707), spot 41 of the 20-mer walk with two-residue shift; source: synthetic peptide on a cellulose membrane
With B12, in assay [4], the binding result is recorded as “binds”.

B13: HPX peptide 76 (peptide, UniProt P14780 671-690, looked up)
peptide: AYFCQDRFYWRVSSRSELNQ
notes: MMP-9 HPX domain (F521-D707), spot 76 of the 20-mer walk with two-residue shift; source: synthetic peptide on a cellulose membrane
With B13, in assay [4], the binding result was “binds”.

B14: HPX peptide 11 (peptide, UniProt P14780 541-560, looked up)
peptide: RFSEGRGSRPQGPFLIADKW
notes: MMP-9 HPX domain (F521-D707), spot 11 of the 20-mer walk with two-residue shift; source: synthetic peptide on a cellulose membrane
Regarding B14, in assay [4], the binding result is given as “binds”.

B15: FnII peptide 15 (peptide, UniProt P14780 253-272, looked up)
peptide: LPWCSTTANYDTDDRFGFCP
notes: MMP-9 FnII module (A225-D390), spot 15 of the 20-mer walk with two-residue shift; source: synthetic peptide on a cellulose membrane
For B15, in assay [4], the binding result is on record as “binds”.

B16: SG peptide 27 (peptide, UniProt P10124 80-99, looked up)
peptide: IQDLNRIFPLSEDYSGSGFG
notes: serglycin core protein, spot 27 of the 20-mer walk with two-residue shift; numbers count on: the mature protein (1-131); source: synthetic peptide on a cellulose membrane
Take B16: the binding result in assay [1], in assay [2] and in assay [3] was “binds” throughout.

B17: SG peptide 51 (peptide, UniProt P10124 128-147, looked up)
peptide: AFHDNLRSLDRNLPSDSQDL
notes: serglycin core protein, spot 51 of the 20-mer walk with two-residue shift; numbers count on: the mature protein (1-131); source: synthetic peptide on a cellulose membrane
Regarding B17, the binding result in assay [5] was “binds”.

B18: HPX peptide 18 (peptide, UniProt P14780 555-574, looked up)
peptide: LIADKWPALPRKLDSVFEER
notes: MMP-9 HPX domain (F521-D707), spot 18 of the 20-mer walk with two-residue shift; source: synthetic peptide on a cellulose membrane
In the case of B18, the binding result in assay [4] is reported as “binds”.

B19: FnII peptide 14 (peptide, UniProt P14780 251-270, looked up)
peptide: DGLPWCSTTANYDTDDRFGF
notes: MMP-9 FnII module (A225-D390), spot 14 of the 20-mer walk with two-residue shift; source: synthetic peptide on a cellulose membrane
As for B19, the binding result in assay [4] is recorded as “binds”.

B20: FnII peptide 17 (peptide, UniProt P14780 257-276, looked up)
peptide: STTANYDTDDRFGFCPSERL
notes: MMP-9 FnII module (A225-D390), spot 17 of the 20-mer walk with two-residue shift; source: synthetic peptide on a cellulose membrane
Consider B20, for which the binding result in assay [4] is recorded as “binds”.

B21: SG peptide 22 (peptide, UniProt P10124 70-89, looked up)
peptide: LRTDLFPKTRIQDLNRIFPL
notes: serglycin core protein, spot 22 of the 20-mer walk with two-residue shift; numbers count on: the mature protein (1-131); source: synthetic peptide on a cellulose membrane
On to B21, for which the binding result in assay [1], in assay [2] and in assay [3] was “binds” in each case.

B22: HPX peptide 70 (peptide, UniProt P14780 659-678, looked up)
peptide: LDTHDVFQYREKAYFCQDRF
notes: MMP-9 HPX domain (F521-D707), spot 70 of the 20-mer walk with two-residue shift; source: synthetic peptide on a cellulose membrane
Regarding B22, the binding result in assay [4] is “binds”.
